pKd: −log10 of the molar value.

For this assay, the target named is IL-8 binding sites on human neutrophils (human). The assay can be described thus: competition of 125I-IL-8 by unlabelled IL-8 on human neutrophils, 2 hr at 4 degrees.

One may read the pKd as −log10 of the Kd, conventionally taken in molar units. High values mean a low Kd, low ones a high Kd. In the case of “human 72 amino acid IL-8 (from UniProt P10145 21-99) (ligand)”, the pKd is 8.96 and the binding sites/cell (binding sites/cell) was found to be 31000.

The record behind these values is patent EP0577752B2.
